Laboratory results taken from publication PMC10786891, “Massively parallel profiling of RNA-targeting CRISPR-Cas13d”.

T1: EsCas13d, nuclease-dead (Eubacterium siraeum, UniProt B0MS50, R295A;H300A;R849A;H854A)
T1 sequence: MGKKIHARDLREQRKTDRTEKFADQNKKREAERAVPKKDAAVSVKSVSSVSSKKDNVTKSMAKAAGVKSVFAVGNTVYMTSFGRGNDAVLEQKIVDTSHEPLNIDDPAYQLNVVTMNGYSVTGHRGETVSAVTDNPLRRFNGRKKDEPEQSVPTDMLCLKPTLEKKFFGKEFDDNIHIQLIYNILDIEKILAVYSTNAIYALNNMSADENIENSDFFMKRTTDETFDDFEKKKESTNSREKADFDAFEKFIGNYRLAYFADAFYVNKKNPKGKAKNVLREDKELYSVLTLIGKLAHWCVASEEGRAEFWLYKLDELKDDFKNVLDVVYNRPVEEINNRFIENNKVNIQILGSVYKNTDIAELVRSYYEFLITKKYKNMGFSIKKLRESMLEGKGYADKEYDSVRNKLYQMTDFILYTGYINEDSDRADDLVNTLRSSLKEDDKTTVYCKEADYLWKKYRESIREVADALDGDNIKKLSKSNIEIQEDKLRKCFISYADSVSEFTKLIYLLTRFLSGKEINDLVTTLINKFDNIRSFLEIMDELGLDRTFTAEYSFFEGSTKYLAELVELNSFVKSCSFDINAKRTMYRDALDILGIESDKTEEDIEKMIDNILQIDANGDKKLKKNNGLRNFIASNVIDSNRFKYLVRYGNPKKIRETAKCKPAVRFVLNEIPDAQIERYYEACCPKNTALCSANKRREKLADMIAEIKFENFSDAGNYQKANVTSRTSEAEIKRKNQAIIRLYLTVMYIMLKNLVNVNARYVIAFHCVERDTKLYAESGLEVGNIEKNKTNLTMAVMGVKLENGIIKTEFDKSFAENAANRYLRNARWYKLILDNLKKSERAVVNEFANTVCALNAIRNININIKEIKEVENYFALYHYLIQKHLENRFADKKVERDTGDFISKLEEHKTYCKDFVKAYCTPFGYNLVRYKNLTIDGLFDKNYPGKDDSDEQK


Each binder was assayed against T1, EsCas13d, nuclease-dead (assay: crRNA (strand 1, pre-loaded); Mg2+; 40 mM Tris-HCl pH 7.5, 150 mM NaCl, 6 mM MgCl2, 1 mM DTT, 0.1% Tween-20, 0.2 mg/ml BSA; 25 C; 10 min per concentration, then washed). Details: tags: His6-TwinStrep-SUMO cleaved; N-terminal SNAP kept (SNAP-Surface 488); label: 3' end held by stalled T7 RNA polymerase.

Row | Binder | Kd [nM]
1 | target 2 MT 5'PFS AGA 3'PFS CAU (mixed) RNA 1: CACCCGUGCAAAAUUGCAGGGGUCUAAAACCUUCUCCAAAUUGUUUCAUCCU RNA 2: GGGAAUGGAUCCACAUCUACGAAUUCAGAAGGAUGAAACAAUUUGGAGAAGCAUAGAUCGGAAGAGCACACGU | 8 ± 1.9
2 | target 2 MT 5'PFS GUG 3'PFS ACU (mixed) RNA 1: CACCCGUGCAAAAUUGCAGGGGUCUAAAACCUUCUCCAAAUUGUUUCAUCCU RNA 2: GGGAAUGGAUCCACAUCUACGAAUUCGUGAGGAUGAAACAAUUUGGAGAAGACUAGAUCGGAAGAGCACACGU | 12.9 ± 0.7
3 | target 2 MT 5'PFS AGU 3'PFS CAU (mixed) RNA 1: CACCCGUGCAAAAUUGCAGGGGUCUAAAACCUUCUCCAAAUUGUUUCAUCCU RNA 2: GGGAAUGGAUCCACAUCUACGAAUUCAGUAGGAUGAAACAAUUUGGAGAAGCAUAGAUCGGAAGAGCACACGU | 11.1 ± 2.7
4 | target 2 MT 5'PFS UUA 3'PFS AGA (mixed) RNA 1: CACCCGUGCAAAAUUGCAGGGGUCUAAAACCUUCUCCAAAUUGUUUCAUCCU RNA 2: GGGAAUGGAUCCACAUCUACGAAUUCUUAAGGAUGAAACAAUUUGGAGAAGAGAAGAUCGGAAGAGCACACGU | 19.4 ± 3.2
5 | target 2 MT 5'PFS AGC 3'PFS ACU (mixed) RNA 1: CACCCGUGCAAAAUUGCAGGGGUCUAAAACCUUCUCCAAAUUGUUUCAUCCU RNA 2: GGGAAUGGAUCCACAUCUACGAAUUCAGCAGGAUGAAACAAUUUGGAGAAGACUAGAUCGGAAGAGCACACGU | 17 ± 6
6 | target 2 MT 5'PFS UCU 3'PFS UAC (mixed) RNA 1: CACCCGUGCAAAAUUGCAGGGGUCUAAAACCUUCUCCAAAUUGUUUCAUCCU RNA 2: GGGAAUGGAUCCACAUCUACGAAUUCUCUAGGAUGAAACAAUUUGGAGAAGUACAGAUCGGAAGAGCACACGU | 12.8 ± 2.5
7 | target 2 MT 5'PFS UAG 3'PFS UAC (mixed) RNA 1: CACCCGUGCAAAAUUGCAGGGGUCUAAAACCUUCUCCAAAUUGUUUCAUCCU RNA 2: GGGAAUGGAUCCACAUCUACGAAUUCUAGAGGAUGAAACAAUUUGGAGAAGUACAGAUCGGAAGAGCACACGU | 2.65 ± 0.29
8 | target 2 MT 5'PFS ACG 3'PFS UCU (mixed) RNA 1: CACCCGUGCAAAAUUGCAGGGGUCUAAAACCUUCUCCAAAUUGUUUCAUCCU RNA 2: GGGAAUGGAUCCACAUCUACGAAUUCACGAGGAUGAAACAAUUUGGAGAAGUCUAGAUCGGAAGAGCACACGU | 23 ± 7
9 | target 2 MT 5'PFS ACC 3'PFS UAU (mixed) RNA 1: CACCCGUGCAAAAUUGCAGGGGUCUAAAACCUUCUCCAAAUUGUUUCAUCCU RNA 2: GGGAAUGGAUCCACAUCUACGAAUUCACCAGGAUGAAACAAUUUGGAGAAGUAUAGAUCGGAAGAGCACACGU | 6.5 ± 1.4
10 | target 2 MT 5'PFS UUA 3'PFS CGA (mixed) RNA 1: CACCCGUGCAAAAUUGCAGGGGUCUAAAACCUUCUCCAAAUUGUUUCAUCCU RNA 2: GGGAAUGGAUCCACAUCUACGAAUUCUUAAGGAUGAAACAAUUUGGAGAAGCGAAGAUCGGAAGAGCACACGU | 24 ± 4
11 | target 2 MT 5'PFS UUA 3'PFS CGG (mixed) RNA 1: CACCCGUGCAAAAUUGCAGGGGUCUAAAACCUUCUCCAAAUUGUUUCAUCCU RNA 2: GGGAAUGGAUCCACAUCUACGAAUUCUUAAGGAUGAAACAAUUUGGAGAAGCGGAGAUCGGAAGAGCACACGU | 20.9 ± 2.1
12 | target 2 MT 5'PFS GUG 3'PFS CAC (mixed) RNA 1: CACCCGUGCAAAAUUGCAGGGGUCUAAAACCUUCUCCAAAUUGUUUCAUCCU RNA 2: GGGAAUGGAUCCACAUCUACGAAUUCGUGAGGAUGAAACAAUUUGGAGAAGCACAGAUCGGAAGAGCACACGU | 10.6 ± 1
13 | target 2 MT 5'PFS UUA 3'PFS AGC (mixed) RNA 1: CACCCGUGCAAAAUUGCAGGGGUCUAAAACCUUCUCCAAAUUGUUUCAUCCU RNA 2: GGGAAUGGAUCCACAUCUACGAAUUCUUAAGGAUGAAACAAUUUGGAGAAGAGCAGAUCGGAAGAGCACACGU | 19.3 ± 2.2
14 | target 2 MT 5'PFS UUA 3'PFS CGC (mixed) RNA 1: CACCCGUGCAAAAUUGCAGGGGUCUAAAACCUUCUCCAAAUUGUUUCAUCCU RNA 2: GGGAAUGGAUCCACAUCUACGAAUUCUUAAGGAUGAAACAAUUUGGAGAAGCGCAGAUCGGAAGAGCACACGU | 48 ± 10
15 | target 2 MT 5'PFS AGA 3'PFS AGA (mixed) RNA 1: CACCCGUGCAAAAUUGCAGGGGUCUAAAACCUUCUCCAAAUUGUUUCAUCCU RNA 2: GGGAAUGGAUCCACAUCUACGAAUUCAGAAGGAUGAAACAAUUUGGAGAAGAGAAGAUCGGAAGAGCACACGU | 4.9 ± 0.7
16 | target 2 MT 5'PFS GUG 3'PFS CAG (mixed) RNA 1: CACCCGUGCAAAAUUGCAGGGGUCUAAAACCUUCUCCAAAUUGUUUCAUCCU RNA 2: GGGAAUGGAUCCACAUCUACGAAUUCGUGAGGAUGAAACAAUUUGGAGAAGCAGAGAUCGGAAGAGCACACGU | 10.5 ± 0.8
17 | target 2 MT 5'PFS UCU 3'PFS UAA (mixed) RNA 1: CACCCGUGCAAAAUUGCAGGGGUCUAAAACCUUCUCCAAAUUGUUUCAUCCU RNA 2: GGGAAUGGAUCCACAUCUACGAAUUCUCUAGGAUGAAACAAUUUGGAGAAGUAAAGAUCGGAAGAGCACACGU | 12.8 ± 3.2
18 | target 2 MT 5'PFS AGU 3'PFS ACG (mixed) RNA 1: CACCCGUGCAAAAUUGCAGGGGUCUAAAACCUUCUCCAAAUUGUUUCAUCCU RNA 2: GGGAAUGGAUCCACAUCUACGAAUUCAGUAGGAUGAAACAAUUUGGAGAAGACGAGAUCGGAAGAGCACACGU | 13.8 ± 1.7
19 | target 2 MT 5'PFS UAG 3'PFS UAA (mixed) RNA 1: CACCCGUGCAAAAUUGCAGGGGUCUAAAACCUUCUCCAAAUUGUUUCAUCCU RNA 2: GGGAAUGGAUCCACAUCUACGAAUUCUAGAGGAUGAAACAAUUUGGAGAAGUAAAGAUCGGAAGAGCACACGU | 2.8 ± 0.4
20 | target 2 MT 5'PFS ACC 3'PFS UAC (mixed) RNA 1: CACCCGUGCAAAAUUGCAGGGGUCUAAAACCUUCUCCAAAUUGUUUCAUCCU RNA 2: GGGAAUGGAUCCACAUCUACGAAUUCACCAGGAUGAAACAAUUUGGAGAAGUACAGAUCGGAAGAGCACACGU | 12 ± 5
21 | target 2 MT 5'PFS GUG 3'PFS ACG (mixed) RNA 1: CACCCGUGCAAAAUUGCAGGGGUCUAAAACCUUCUCCAAAUUGUUUCAUCCU RNA 2: GGGAAUGGAUCCACAUCUACGAAUUCGUGAGGAUGAAACAAUUUGGAGAAGACGAGAUCGGAAGAGCACACGU | 13.1 ± 0.8
22 | target 2 MT 5'PFS UUA 3'PFS AGG (mixed) RNA 1: CACCCGUGCAAAAUUGCAGGGGUCUAAAACCUUCUCCAAAUUGUUUCAUCCU RNA 2: GGGAAUGGAUCCACAUCUACGAAUUCUUAAGGAUGAAACAAUUUGGAGAAGAGGAGAUCGGAAGAGCACACGU | 23.1 ± 3
23 | target 2 MT 5'PFS ACC 3'PFS UAG (mixed) RNA 1: CACCCGUGCAAAAUUGCAGGGGUCUAAAACCUUCUCCAAAUUGUUUCAUCCU RNA 2: GGGAAUGGAUCCACAUCUACGAAUUCACCAGGAUGAAACAAUUUGGAGAAGUAGAGAUCGGAAGAGCACACGU | 4.6 ± 0.8
24 | target 2 MT 5'PFS AGU 3'PFS ACU (mixed) RNA 1: CACCCGUGCAAAAUUGCAGGGGUCUAAAACCUUCUCCAAAUUGUUUCAUCCU RNA 2: GGGAAUGGAUCCACAUCUACGAAUUCAGUAGGAUGAAACAAUUUGGAGAAGACUAGAUCGGAAGAGCACACGU | 22 ± 7
25 | target 2 MT 5'PFS AGA 3'PFS AGC (mixed) RNA 1: CACCCGUGCAAAAUUGCAGGGGUCUAAAACCUUCUCCAAAUUGUUUCAUCCU RNA 2: GGGAAUGGAUCCACAUCUACGAAUUCAGAAGGAUGAAACAAUUUGGAGAAGAGCAGAUCGGAAGAGCACACGU | 5.6 ± 1.2
26 | target 1 complement block 2-7 (mixed) RNA 1: CACCCGUGCAAAAAUGCAGGGGUCUAAAACUGAGCGGAUAACCUCUCUAUGG RNA 2: GGGAAUGGAUCCACAUCUACGAAUUCGUACCAUAGAGAGGUUAUGGCGAGACCGAGAUCGGAAGAGCACACGU | 13.8 ± 0.7
27 | target 1 insG 3' of 14,insG 3' of 9 (mixed) RNA 1: CACCCGUGCAAAAAUGCAGGGGUCUAAAACUGAGCGGAUAACCUCUCUAUGG RNA 2: GGGAAUGGAUCCACAUCUACGAAUUCGUACCAUAGAGAGGGUUAGUCCGCUCACCGAGAUCGGAAGAGCACACGU | 21.5 ± 1.5
28 | target 1 insC 3' of 15,insC 3' of 3 (mixed) RNA 1: CACCCGUGCAAAAAUGCAGGGGUCUAAAACUGAGCGGAUAACCUCUCUAUGG RNA 2: GGGAAUGGAUCCACAUCUACGAAUUCGUACCAUAGAGCAGGUUAUCCGCUCCACCGAGAUCGGAAGAGCACACGU | 17.3 ± 0.9
